Assay [1] deals with T1, recombinant human BMP-2 (human, UniProt P12643 283-396). The experiment in a line: cell-based or functional assay.
The target in assay [2] is T1, recombinant human BMP-2. In words: SPR (Biacore X), rhBMP-2 on CM-5 chip, peptide at 1×10^-5 to 1×10^-4 M in solution. The protocol: Buffers and chips for the procedure were obtained from Biacore. […] This material was then attached to a CM-5 sensor chip using reagents and procedures supplied by the manufacturer. Running buffer was 10 mM HEPES, pH 7.4, 150 mM NaCl, 3 mM EDTA, 0.005% Surfactant P20. The peptide was dissolved in running buffer at concentrations ranging from 1×10⁻⁵ to 1×10⁻⁴ M. Flow rates from 5 to 50 μl/min and injection volumes of 20 to 100 μl were employed. The regeneration solution was […] glycine-HCl, pH 2.0.
On the technique in general: In SPR one partner is held on a chip, and binding of the other changes the refractive index at the surface.

Positions of bridges follow the written chain, without caps; N, C: chain ends. No end group written: not given here.

T1 sequence (P12643 283-396 limits assumed): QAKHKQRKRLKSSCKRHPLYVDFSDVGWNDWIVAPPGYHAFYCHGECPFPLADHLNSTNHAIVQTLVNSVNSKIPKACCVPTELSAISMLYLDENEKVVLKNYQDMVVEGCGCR

B1: cyclized BMP Binding Peptide (BBP), bovine (peptide)
peptide: CRSTVRMSAEQVQNVWVRC
modifications: disulfide 1-19 (inferred)
notes: Synthetic 19 amino acid cyclic peptide, 2.1 kD; Reduction with β-mercaptoethanol decyclizes it, which implies a disulfide; also called cyclized BBP
As for B1, the “retention of labeled rhBMP-2 on collagen sponges implanted in rodent muscle pouches (1, 3 and 7 days)” value in the assay with recombinant human BMP-2 [1] was around 2 fold. The Kd (as a rule, a measure of binding affinity in units of concentration) with recombinant human BMP-2 [2] stood at 30 µM.

The record behind these values is US20130303449A1 (University of California, published 2013).
